Experimental data: EP0751225B1, “Process for the identification of proteolytic activities and/or inhibitors thereof” (TECNOGEN S.C.P.A., priority 1990, dated 1992)

Biological target: T1, ET [16-29] (Homo sapiens, UniProt P05305)
T1 construct: made in house; host or cells: chemical solid-phase peptide synthesis (Fmoc)
Experiment: Capacity of affinity chromatography columns prepared with the immobilized peptides (retention of injected ET [16-29])
Format: binding
Conditions: 500 microlitres of ET [16-29] at 1 mg/ml injected; peptide immobilized on EUPERGIT C30 N; 0.1 M TRIS HCL pH 6.8, 1 ml/min
Protocol: The peptides Δ ET [16-29] and 8 Δ ET [16-29] have immobilized on a support previously activated through the introduction of epoxide groups (EUPERGIT C30 N), employing the same peptide/support ratio. The peptides 8 Δ ET [16-29] (2 mg) and Δ ET [16-29] (2 mg) have been dissolved separately in 10 ml of 0.1 M […], 0.5 M NaCl, pH 8.5, and added separately to two aliquots of 1 g of EUPERGIT C30 N. The mixtures have been incubated for 24 hours under stirring at room temperature. The introduction of the peptides within the resin has been followed by means of RP-HPLC, and after 24 hours an amount of about 80 % of the peptide initially present in the two preparations turned out to be covalently linked to the support. Such incorporation percentage has been then confirmed by analysis of amino acids, which analysis were carried out on weighed amounts of the two derivatized resins.
The two derivatized peptide supports were employed for filling two glass columns for affinity chromatography (80 x 6.6 mm I.D., total volume 2.3 ml) that were equilibrated with 0.1 M TRIS* HCL, at pH 6.8 and with a flowrate of 1 ml/min. The eluent was continuously monitored by means of optical absorption determinations at 280 nm wavelength. For determining the capacity of the columns, 500 microlitres of ET [16-29] dissolved at a concentration of 1 mg/ml in the elution buffer were injected. […]

Sequence: RKFLAGLRARRLKF [Δ ET [16-29]]
- injected material retained by the column: 50%
